According to paper PMC7452893 (Nature Communications, 2020):
Numbering of substitutions follows the chain as printed.

B1: MD45 (antibody, V domains shown)
VH: EVQLVQSGGGLVQPGGSLRLSCAASGFTVSSNYMTWVRQAPGKGLEWVSVIYSGGSTFYADSVKGRFTISRHNSKNTLYLQMNSLRAEDTAVYYCARDLSVRGGMDVWGQGTMVTVSS
VL: EIVLTQSPGTLSLSPGERATLSCRASQSVNSSYLAWYQQKPGQAPRLLIYGASNRATGIPDRFSGSGSGTDFTLTISRLEPEDFAVYYCQQYGVSPEIIFGQGTRLEIK
notes: scFv-Fc format; also called MD45 scFv-Fc
B2: MD63 (antibody, V domains shown)
VH: QVTLKESGGGVVQPGRSLRLSCAASGFTFSSYAMHWVRQAPGKGLEHVSAISSDGGITYFADSVKGRFTISRDNSRNTLFLQMSSLRVEDTAVYYCVKDQDSNSWYDAFDIWGRGTMVTVSS
VL: not shown
notes: scFv-Fc format; also called MD63 scFv-Fc
B3: MD47 (antibody, V domains shown)
V domain 1: QMQLVQSGGGLVQPGGSLRLSCAASGFTFSSYAMSWVRQAPGKGLEWVSAISSGGSTYYADSVKGRFTISRDNSKNTLYLQMNSLRAEDTAVYYCAKDLVTAPSYEAFDIWGQGTMITVSS
V domain 2: NFMLTQPPSVSVAPGKTARITCGGNNIGSKSVHWYQQKPGQAPVLVIYYDSDRPSGIPERFSGSNSGNTATLTISRVEAGDEADYYCQVWDSSSHHHVVFGGGTKGTVL
notes: scFv-Fc format; also called MD47 scFv-Fc
B4: MD67 (antibody, V domains shown)
VH: B1 VH with Q6E, M113T
VL: not shown
notes: scFv-Fc format; also called MD67 scFv-Fc
B5: MD17 (antibody, V domains shown)
VH: EVQLLESGGGLVQPGGSLRLSCSASGFTFSTYVMNWVRQAPGKGLEHVSGISSDGGITYYADSVKGRFTISRDNSKNTLYLQMSSLRVEDTAVYYCVKDQDSSSWYDAFDIWGQGTMVTVSS
VL: DIVMTQSPSSLSASVGDRVTITCRASQSISNYLNWYQQKLGKAPKLLTYAASRLQSGVPSRFSASGSGTEFTLTISSLQPEDFATYYCQQSYTTPLTFGGGTKLEIK
notes: scFv-Fc format; also called MD17 scFv-Fc
B6: MD29 (antibody, V domains shown)
VH: B5 VH with E1Q, V2M, L5V, E6Q, L45P
VL: NIRLTQSPSSLSASVGDRVTITCRATQSISSYLNWYQQKPGKAPNLLIYAASSLQSGVPSRFSGSGSGTDFTLTISSLQPEDFATYYCHQTYTSPYTFGQGTKLEIK
notes: scFv-Fc format; also called MD29 scFv-Fc
B7: MD62 (antibody, V domains shown)
VH: EVQLVQSGGGLIQPGGSLRLSCAASGVTVSSNYMTWVRQAPGKGLEWVSLIYSGGSTYYADSVKGRFTISRDNSKNTLYLQMNSLRAEDTAVYYCARDLQYYGMDVWGQGTMVTVSS
VL: AIRMTQSPSSVSASVGDRVTITCRASQDIGSWLGWYQQKPGKAPKLLIYAASSLAGGVPSRFSGSGSGTDFTLTISSLQPEDFATYYCQQANSFPLTFGGGTKLEIK
notes: scFv-Fc format; also called MD62 scFv-Fc

target: T1, SARS-CoV-2 spike S1 subunit (SARS-CoV-2, Wuhan-Hu-1 (QHD43416), UniProt P0DTC2); assay: ELISA; direct ELISA; S1 as coating antigen (2 μg/ml), antibody diluted in series; apparent KD (Fig. 1d); details: both partners purified
T1 construct: also called S1 domain

Row | Binder | Kd [nM]
1 | B1 | 12.7
2 | B2 | 15.6

target: T1, SARS-CoV-2 spike S1 subunit; assay: ELISA; direct ELISA; plates coated with 2 μg/ml recombinant spike, S1, RBD or NTD; scFv-Fc detected with AP-conjugated anti-human IgG; specificity panel (Fig. 1c); details: both partners purified

Row | Binder | binding result
3 | B3 | binds

target: SARS-CoV-2 spike N-terminal domain (NTD) (SARS-CoV-2, Wuhan-Hu-1 (QHD43416), UniProt P0DTC2); assay: as above; details: both partners purified

Row | Binder | binding result
4 | B3 | no binding
5 | B1 | no binding
6 | B4 | no binding
7 | B5 | no binding
8 | B6 | no binding
9 | B7 | no binding
10 | B2 | no binding
